Tests used:
[1] = target: T1, murine resistin (#450-28) from peprotech (mouse, UniProt Q99P87 21-114); assay: ELISA, coated murine resistin
T1 construct: Bought; also called mouse antigen; mouse resistin antigen
T1 sequence (looked up): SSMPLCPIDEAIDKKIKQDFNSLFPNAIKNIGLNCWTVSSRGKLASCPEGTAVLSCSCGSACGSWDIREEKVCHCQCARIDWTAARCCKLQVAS
Description: The mouse antigen was murine resistin (#450-28) from peprotech. Mouse antigen was diluted to 10 nM in DPBS in 96-well immune plates (NUNC, 439454) at 100 μl per well, and coated for 16 hours at 4° C. It was then blocked with skim milk diluted 4% in PBS for 1 hour at 37° C. Antibody proteins were diluted in 1% skim milk diluted in PBS to 1, 10, and 100 nM, respectively, at 100 μl per well and incubated for 2 hours at 37° C. After washing with PBS-T, anti-human Fc-HRP (Pierce® Peroxidase Conjugated Goat Anti-Human IgG FC (thermo fisher scientific, 31413)) was diluted at 1:10,000 dilution and reacted for 1 hour at 37° C. as a secondary antibody. After PBS-T washing, 100 μl of TMB (sigma, T0440) solution was applied to each well for a 10 min substrate reaction. After 10 minutes, the substrate reaction was stopped by treating each well with 50 μl of 1N H₂SO₄ and measured at 490 nm using a spectrophotometer (thermo fisher scientific, 51119200).

resistin antigen = target: T2, resistin antigen (UniProt Q9HD89 19-108, limits assumed); assay: Octet, resistin antigen on the biosensor, antibody in solution
T2 construct: Used for the Octet assays and the monophage ELISAs, where only 'resistin antigen' is printed; tags not known; also called resistin antigen protein
T2 sequence (looked up): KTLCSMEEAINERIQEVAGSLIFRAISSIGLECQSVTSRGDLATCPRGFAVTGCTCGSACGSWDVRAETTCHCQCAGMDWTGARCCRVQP
Text: To investigate the affinity between the antibody and the resistin antigen, the Octet (Forte bio) system, which enables real-time investigation of ligand-receptor binding using a biosensor, was used. The system is an instrument that binds resistin antigen protein to a biosensor, flows antibody through it, and optically analyzes the degree of antibody binding to the antigen bound to the sensor, measuring the level of antibody binding to the antigen with high sensitivity at the light wavelength level. The affinity for the resistin antigen was expressed as Kₒₙ (association constants, binding rate) and Kdis (dissociation constants, dissociation rate) between the receptor and ligand, and KD (equilibrium dissociation constant) for the reaction of binding and dissociation.

B1: RETN-5A2 (antibody, human IgG1, V domains shown)
VH: QVQLVQSGAEGRKPGSSVKVSCKVSGDTFSSYAISWVRQAPGQGLEWMGGIIPIFGAADYAQKFKGRVTISADESTSTAYMELSSLRSEDTAVYYCAKGPDYYGSFDPWGQGTLITVSS
VL: DIQMTQSPSFLSASVGDRVTITCRASQYIGTYLAWYQQQPGKAPKLLIYGASILQNGVPSRFSGSASGTEFTLTISSLQPEDFATYYCQQADSFPLTFGGGTKVDIKR
notes: Human antibody from scFv phage library, converted to IgG and made in HEK293F cells; also called parent antibody 5A2; resistin 5A2 parent antibody
binding result [1]: no binding (tested: antibody at 1, 10 and 100 nM) | Kd (resistin antigen): ≤ 1 nM

B2: RETN-5A2_LS_2F11 (antibody, human IgG1, V domains shown)
VH: QVQLVQSGAEGRKPGSSVKVSCKVSGDTFSSYAISWVRQAPGQGLEWMGGIIPIFGAADYAQKFKGRVTISADESTSTAYMELSSLRSEDTAVYYCAKGPDYYGSFDPWGQGTLITVSS
VL: DIQMTQSPSSLSASVGDRVTITCRASQSIGTYLNWYQQKPGKAPKLLIYDASSLEDGVPSRFSGSGSGTDFTLTISSLQPEDSATYYCQQSYTMPLYTFGQGTKLEIKR
notes: Light chain shuffled variant of RETN-5A2, tested as IgG
Kd (resistin antigen): ≤ 1 nM

B3: RETN-5A2_LS_1F11 (antibody, human IgG1, V domains shown)
VH: QVQLVQSGAEGRKPGSSVKVSCKVSGDTFSSYAISWVRQAPGQGLEWMGGIIPIFGAADYAQKFKGRVTISADESTSTAYMELSSLRSEDTAVYYCAKGPDYYGSFDPWGQGTLITVSS
VL: not shown
notes: as for B2
Kd (resistin antigen): ≤ 1 nM

B4: RETN-5A2_LS_2H10 (antibody, human IgG1, V domains shown)
VH: QVQLVQSGAEGRKPGSSVKVSCKVSGDTFSSYAISWVRQAPGQGLEWMGGIIPIFGAADYAQKFKGRVTISADESTSTAYMELSSLRSEDTAVYYCAKGPDYYGSFDPWGQGTLITVSS
VL: NFMLTQPASVSGSPGQSITISCTGSSSDVGGYNYVTWYQQHPGKAPQLIIYDVTKRPSGVSNRFSGSKSGNSASLTISGLQAEDEADYYCSSYSSSTFYVFGTGTKVTVLR
notes: as for B2
Kd (resistin antigen): ≤ 1 nM

B5: RETN-5A2_LS_2D07 (antibody, human IgG1, V domains shown)
VH: QVQLVQSGAEGRKPGSSVKVSCKVSGDTFSSYAISWVRQAPGQGLEWMGGIIPIFGAADYAQKFKGRVTISADESTSTAYMELSSLRSEDTAVYYCAKGPDYYGSFDPWGQGTLITVSS
VL: QSALTQPASVSGSPGQSVTISCTGTSSDIGRYNRVSWYQHHPGKAPKLIIYDVSNRPSGVSNRFSGSKSGNTASLTISGLQAGDESDYYCSAYTRSSTWVFGGGTKLTVLR
notes: as for B2
Kd (resistin antigen): ≤ 1 nM

B6: RETN-5A2_LS_2E10 (antibody, human IgG1, V domains shown)
VH: QVQLVQSGAEGRKPGSSVKVSCKVSGDTFSSYAISWVRQAPGQGLEWMGGIIPIFGAADYAQKFKGRVTISADESTSTAYMELSSLRSEDTAVYYCAKGPDYYGSFDPWGQGTLITVSS
VL: DIQMTQSPSSLSASVGDRVTITCRTSQTITNYLNWYQQKPGRAPKLLIFDASNLETGVPSRFSGSGSGTDFTLTISSLQPEDFATYFCQQSYNPGYTFGQGTKLEIKR
notes: as for B2
Kd (resistin antigen): ≤ 1 nM

B7: RETN-5A2_LS_2G03 (antibody, human IgG1, V domains shown)
VH: QVQLVQSGAEGRKPGSSVKVSCKVSGDTFSSYAISWVRQAPGQGLEWMGGIIPIFGAADYAQKFKGRVTISADESTSTAYMELSSLRSEDTAVYYCAKGPDYYGSFDPWGQGTLITVSS
VL: DIQMTQSPSSLSASVGDRVTITCQASQHVSSYLNWYQQKPGKAPKLLIYAASNLQSGVPSRFSGSGSGTDFTLTISSLQPDDFATYYCQQYDSYSSVYTFGPGTKLDIKR
notes: as for B2
Kd (resistin antigen): ≤ 1 nM

B8: RETN-5A2_LS_2B02 (antibody, human IgG1, V domains shown)
VH: QVQLVQSGAEGRKPGSSVKVSCKVSGDTFSSYAISWVRQAPGQGLEWMGGIIPIFGAADYAQKFKGRVTISADESTSTAYMELSSLRSEDTAVYYCAKGPDYYGSFDPWGQGTLITVSS
VL: DIQMTQSPGTLSLSAGERATLSCRASQSVRGSYLAWYQQKPGQAPRLLIYGTSSRAPGIPDRFSGSGSGTDFTLTISSLEPEDFAVYYCQQRGDWLYTFGQGTKVEIKR
notes: as for B2
Kd (resistin antigen): ≤ 1 nM

From patent US20250019430A1 (SEOUL NATIONAL UNIVERSITY HOSPITAL, published 2025)
